According to patent US12186374B2 (Sanofi-Aventis Deutschland GmbH, priority 2014, dated 2025):

Key:
[1] = tested on: patients with Type 2 diabetes mellitus (T2DM); assay: Body weight change from baseline to Week 30 (Example 2); assay type: in vivo, human
Text: (§1) Body weight should be obtained with the patient wearing undergarments or very light clothing and no shoes, and with an empty bladder. The same scale should be used throughout the study, and calibrated on a regular basis as recommended by the manufacturer.
Similar MMRM method or ANCOVA was applied on continuous secondary efficacy endpoints and Cochran-Mantei-Haenszel method stratified by randomization strata was applied on categorical efficacy endpoints.

[2] = tested on: patients with Type 2 diabetes mellitus (T2DM); assay: Patients receiving rescue therapy (Example 2); assay type: in vivo, human
Text: Routing measurements and central lab alerts were set up to ensure that glycemic parameters remained under thresholds values predefined for rescue therapy. If values were above these thresholds, and no explanations were found, or appropriate actions failed, or a dose >60 U was necessary to decrease glycemic parameters below the threshold values, rescue therapy was to be introduced along with IMP and metformin (if taken). Newly initiated anti-diabetic medications, or an increase from baseline in background metformin dose were considered as rescue therapy.

patients with T2DM [3] = assay: Body weight change from baseline to Week 30 (Example 3); assay type: in vivo, human
Text: as §1
(§2) Similar MMRM method or analysis of covariance (ANCOVA) was applied on continuous secondary efficacy endpoints and the Cochran-Mantei-Haenszel method stratified by randomization strata was applied for categorical efficacy endpoints.

patients with T2DM [4] = assay: Fasting plasma glucose change from baseline to Week 30 (Example 3); assay type: in vivo, human
Experimental: FPG is measured at a central laboratory. At V5 and V21, FPG will be part of the standardized meal test.
as §2

patients with T2DM [5] = assay: Average 7-point SMPG change from baseline to Week 30 (Example 3); assay type: in vivo, human; conditions: mITT population
Text: In yet another aspect of the present invention, the composition or combination as described herein can be used for improving average 7-point SMPG profile. Self-monitored plasma glucose (SMPG)”, as used herein, is in particular the “7-point Self Monitored Plasma Glucose”. “7-point Self Monitored Plasma Glucose” in particular refers to the measurement of plasma glucose seven times a day and calculation of the average plasma glucose concentration therefrom. The “7-point Self Monitored Plasma Glucose” value is in particular an average plasma glucose concentration including fasting and postprandial conditions. In particular, measurements of plasma glucose concentration are performed pre-breakfast, post-breakfast (e.g. 2-hour post-breakfast), pre-lunch, post-lunch (e.g. 2-hour post-lunch), pre-dinner, post-dinner (e.g. 2-hour post-dinner) and at bed-time. The treatment by the combination of the present invention, as described herein, can improve the self-monitored plasma glucose.
The 7-point SMPG profile should be measured at the following 7 points: pre-prandial and 2 hours postprandial for breakfast, lunch, dinner and at bedtime. Two hours postprandial (breakfast, lunch and dinner) is defined as 2 hours after the start of the meal.
The patients are requested to perform 7-point SMPG profile measurement over a single 24-hour period on 2 Different Days in the Week Before V6 (Week 0), V15 (Week 12), and V21 (week 30, end of treatment assessment visit). All SMPG values measured on these days will be recorded in diary and transferred into the e-CRF.
as §2

patients with T2DM [6] = assay: Increased calcitonin reported on AE form (Example 3); assay type: in vivo, human
Text: During the course of the study, if calcitonin value is found […] (5.9 pmol/L): • A retest should be performed by the central laboratory within 7 days. In addition, blood should be collected and sent to the central laboratory for measurement of: calcium, phosphorus, gastrin, Thyroid Stimulating Hormone (TSH), and anti-thyroid peroxidase (anti-TPO) antibodies. • The clinical and laboratory documentations listed below are to be collected and recorded in source documents as soon as possible: • Potential false positive circumstances: smoking status, proton-pump inhibitor treatments (eg, omeprazole), autoimmune thyroid diseases (Hashimoto's thyroiditis or Grave's disease), differentiated thyroid cancer, hypercalcemia, hypergastrinemia, chronic renal insufficiency (not on dialysis), other neuro-endocrine tumors (lung small cell cancer, intestinal carcinoid), acute pulmonary inflammatory conditions, or sepsis; • Specific personal and/or familial medical history in relation to thyroid or other endocrine diseases; • Specific physical examination (neck, thyroid gland).
If the retest confirms that the calcitonin value is […]: • The event must be reported in the e-CRF on the specific AE form and specific complementary form for “increased calcitonin […]” with all appropriate clinical and laboratory documentation. • An ultrasound scan of the thyroid should be performed and the patient may be referred to a thyroid specialist if judged necessary. • The patient should continue to be followed according to protocol schedule (including planned calcitonin measurements). […] As far as possible, blood should be collected 1 to 2 weeks after IMP discontinuation and sent to the central laboratory for calcitonin measurement. • If at any time during follow-up a calcitonin value ≥20 pg/mL increases by 20% or more between 2 assessments (while remaining below 50 pg/mL), a repeated measurement should be performed earlier than scheduled in the protocol, ie, 1 month later. Once results are available, discussion with Sponsor should be initiated without delay for further guidance. 9.6.7 Monitoring of Renal Function in Case of Prolonged and Severe Nausea and Vomiting

[7] = tested on: patients with Type 2 diabetes mellitus (T2DM); assay: Symptomatic hypoglycemia (Example 2)
[8] = tested on: patients with Type 2 diabetes mellitus (T2DM); assay: Pen-related event questionnaire (Example 2); conditions: on-treatment period
[9] = tested on: patients with Type 2 diabetes mellitus (T2DM); assay: ALT increase reported on AE form (Example 2); conditions: on-treatment period
[10] = PT, on-treatment period, Safety population
[11] = on-treatment period, Safety population

Substance: Gly(A21)-Arg(B31)-Arg(B32)-human insulin [Insulin Glargine]
- LS mean body weight change from baseline to Week 30 ([1]; Example 2): +1.10 kg
- Body weight, change from baseline to Week 30, LS Mean (SE) ([1]; MMRM, mITT population): −1.11 (0.183) kg
- Body weight, Week 30, Mean (SD) ([1]; mITT population): 90.68 (16.03) kg
- Body weight, Week 30, Median ([1]; mITT population): 89.00 kg
- Patients who received rescue therapy, % [2]: 3.4%
- Patients who received rescue therapy, number [2]: 16 patients
- Body weight, LS mean change from baseline to Week 30 (patients with T2DM [3]; Example 3): +0.70 kg
- Body weight change from baseline to Week 30, LS Mean (SB) (patients with T2DM [3]; MMRM, mITT population): 0.70 (0.178) kg
- Body weight at Week 30, Mean (SD) (patients with T2DM [3]; mITT population): 87.96 (15.08) kg
- Body weight at Week 30, Median (patients with T2DM [3]; mITT population): 85.90 kg
- FPG, LS mean change from baseline to Week 30 (patients with T2DM [4]; Example 3): -0.46 mmol/L
- Fasting plasma glucose change from baseline to Week 30, LS Mean (patients with T2DM [4]; MMRM, mITT population): -0.46 mmol/L
- Fasting plasma glucose at Week 30, Mean (patients with T2DM [4]; mITT population): 6.69 mmol/L
- Fasting plasma glucose at Week 30, Median (patients with T2DM [4]; mITT population): 6.30 mmol/L
- Average of 7-point SMPG, change from baseline to Week 30, LS Mean (SE) (patients with T2DM [5]; MMRM): −0.60 (0.130) mmol/L
- Average of 7-point SMPG at Week 30, Mean (SD) (patients with T2DM [5]): 8.62 (1.74) mmol/L
- Average of 7-point SMPG at Week 30, Median (patients with T2DM [5]): 8.26 mmol/L
- Patients with TEAE of increased calcitonin (≥20 pg/mL) (patients with T2DM [6]; Example 3): Two
- % of patients with events reported on the AE form for increased calcitonin (≥20 ng/L): Blood calcitonin increased (patients with T2DM [6]; [10]): 0.5%
- Number of patients with events reported on the AE form for increased calcitonin (≥20 ng/L): Blood calcitonin increased (patients with T2DM [6]; [10]): 2
- % of patients with events reported on the AE form for increased calcitonin (≥20 ng/L): Any (patients with T2DM [6]; [11]): 0.5%
- Number of patients with events reported on the AE form for increased calcitonin (≥20 ng/L): Any (patients with T2DM [6]; [11]): 2
- Documented (≤70 mg/dL) symptomatic hypoglycemia event rate per patient-year ([7]; Example 2): 1.22 per patient-year
- Events of severe symptomatic hypoglycemia ([7]; Example 2): 1 event
- Incidence of documented (≤70 mg/dL) symptomatic hypoglycemia ([7]; Example 2): 23.6%
- Number of symptomatic hypoglycemia events ([7]; Example 2): 338 events
- Patients reporting symptomatic hypoglycemia (protocol definition) ([7]; Example 2): 25.5%
- Symptomatic hypoglycemia events per patient-year ([7]; Example 2): 1.29 events per patient-year
- Documented symptomatic hypoglycemia (plasma glucose < 60 mg/dL [[…]]): Number of events [7, 11]: 75
- Documented symptomatic hypoglycemia (plasma glucose < 60 mg/dL [[…]]): Number of events per patient year [7, 11]: 0.29 per patient year
- Documented symptomatic hypoglycemia (plasma glucose < 60 mg/dL [[…]]): Number of patients with events [7, 11]: 50 (10.7%) n (%)
- Documented symptomatic hypoglycemia (plasma glucose < 60 mg/dL [[…]]): Number of patients with events per patient year [7, 11]: 0.19 per patient year
- Documented symptomatic hypoglycemia (plasma glucose ≤ 70 mg/dL [[…]]): Number of events [7, 11]: 321
- Documented symptomatic hypoglycemia (plasma glucose ≤ 70 mg/dL [[…]]): Number of events per patient year [7, 11]: 1.22 per patient year
- Documented symptomatic hypoglycemia (plasma glucose ≤ 70 mg/dL [[…]]): Number of patients with events [7, 11]: 110 (23.6%) n (%)
- Documented symptomatic hypoglycemia (plasma glucose ≤ 70 mg/dL [[…]]): Number of patients with events per patient year [7, 11]: 0.42 per patient year
- Probable symptomatic hypoglycemia: Number of events [7, 11]: 16
- Probable symptomatic hypoglycemia: Number of events per patient year [7, 11]: 0.06 per patient year
- Probable symptomatic hypoglycemia: Number of patients with events [7, 11]: 12 (2.6%) n (%)
- Probable symptomatic hypoglycemia: Number of patients with events per patient year [7, 11]: 0.05 per patient year
- Severe symptomatic hypoglycemia: Number of events [7, 11]: 1
- Severe symptomatic hypoglycemia: Number of events per patient year [7, 11]: <0.01 per patient year
- Severe symptomatic hypoglycemia: Number of patients with events [7, 11]: 1 (0.2%) n (%)
- Severe symptomatic hypoglycemia: Number of patients with events per patient year [7, 11]: <0.01 per patient year
- Symptomatic hypoglycemia: Number of events [7, 11]: 338
- Symptomatic hypoglycemia: Number of events per patient year [7, 11]: 1.29 per patient year
- Symptomatic hypoglycemia: Number of patients with events [7, 11]: 119 (25.5%) n (%)
- Symptomatic hypoglycemia: Number of patients with events per patient year [7, 11]: 0.45 per patient year
- Patients reporting pen-related events, % ([8]; Example 2): 2.1%
- Patients reporting pen-related events, number ([8]; Example 2): 10 patients
- Patients with events reported in pen-related event questionnaire: Any pen-related events ([8]; Safety population): 10 (2.1%) Number (%)
- Pen-related events: Associated with a clinical event ([8]; Safety population): 0 Number (%)
- Pen-related events: Not associated with a clinical event ([8]; Safety population): 10 (2.1%) Number (%)
- Patients with AE of ALT increase ([9]; Example 2): 2 patients
- Events reported on the AE form for ALT increase: Alanine aminotransferase increased ([9]; Safety population): 2 (0.4%) n (%)
- Patients with events reported on the AE form for ALT increase: Any ([9]; Safety population): 2 (0.4%) n (%)
